{"source": "paper doi:10.1101/2021.08.11.455960", "key": {"[1]": {"target": "human angiotensin-converting enzyme 2 ectodomain (human) (UniProt Q9BYF1)", "sequence (Q9BYF1 19-615)": "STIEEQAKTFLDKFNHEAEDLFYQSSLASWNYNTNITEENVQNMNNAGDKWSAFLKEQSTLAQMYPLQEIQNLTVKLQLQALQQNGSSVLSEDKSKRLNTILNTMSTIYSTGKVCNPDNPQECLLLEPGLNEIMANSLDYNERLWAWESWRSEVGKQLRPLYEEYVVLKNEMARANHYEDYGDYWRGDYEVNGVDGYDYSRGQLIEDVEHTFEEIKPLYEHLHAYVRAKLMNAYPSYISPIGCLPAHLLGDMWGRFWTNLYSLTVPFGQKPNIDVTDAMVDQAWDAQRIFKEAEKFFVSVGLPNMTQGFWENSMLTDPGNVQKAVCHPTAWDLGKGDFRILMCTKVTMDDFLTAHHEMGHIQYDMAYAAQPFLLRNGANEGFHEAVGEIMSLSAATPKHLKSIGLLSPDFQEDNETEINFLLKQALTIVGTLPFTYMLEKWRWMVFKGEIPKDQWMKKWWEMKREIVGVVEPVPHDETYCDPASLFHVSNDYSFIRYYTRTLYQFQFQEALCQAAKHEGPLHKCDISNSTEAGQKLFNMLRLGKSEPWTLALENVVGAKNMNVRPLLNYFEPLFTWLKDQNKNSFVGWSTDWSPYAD", "test": "SPR"}, "[2]": {"target": "Rhinolophus affinis angiotensin-converting enzyme 2 ectodomain (Rhinolophus affinis)", "test": "SPR"}}, "data": [{"substance": "RaTG13 spike receptor binding domain (domain or fragment)", "values": [{"measurement": "Kd", "setting": "[1]", "value": 21, "unit": "nM"}, {"measurement": "Kd", "setting": "[2]", "value": 12, "unit": "nM"}]}]}
